The record followed here is PMC5510750.

The experiment has as its target IFN-λ3 H11 displayed on yeast. The experiment in a line: flow cytometry on cells. In general terms: A flow cytometer gives signals particle by particle.

Chain of IL-10Rβ, monomeric soluble receptor (Q08334 20-220): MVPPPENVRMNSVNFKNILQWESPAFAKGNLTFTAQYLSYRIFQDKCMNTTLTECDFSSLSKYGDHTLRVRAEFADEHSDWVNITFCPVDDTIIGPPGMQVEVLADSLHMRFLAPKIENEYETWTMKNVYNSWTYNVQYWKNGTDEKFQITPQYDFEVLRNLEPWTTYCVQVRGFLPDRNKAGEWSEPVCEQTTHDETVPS

For “IL-10Rβ, monomeric soluble receptor (from UniProt Q08334 20-220)”, the Kd (commonly the free concentration of one partner at which half of the binding sites on the other are occupied at equilibrium, for simple one-to-one binding) was found to be 200 nM.
